Assays:
[1] = biological target: T1, human recombinant TGF-b3 (Shenandoah Biotechnology, cat. #100-109) (human, UniProt P10600 301-412); test: ELISA; scFv culture on plate-coated TGF-b3, anti-cmyc detection
T1 construct: Bought recombinant protein, coated on ELISA plates; also called TGF-β3; hTGF-ß3
T1 sequence: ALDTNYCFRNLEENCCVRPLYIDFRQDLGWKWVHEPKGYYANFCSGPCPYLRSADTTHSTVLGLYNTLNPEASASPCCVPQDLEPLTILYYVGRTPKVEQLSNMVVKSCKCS
Description: (§1) To perform the ELISA a 96-well maxisorp Nunc-immunoplate (Thermo Scientific, cat. #2022-10) was coated with 50 μl/well of human recombinant TGF-b1 (Acrobiosystems, cat. #TG1-H4212), TGF-b2 (R&D Systems, cat. #302-B2-010) and human recombinant TGF-b3 (Shenandoah Biotechnology, cat. #100-109) at 500 ng/ml in PBS at 4° C. overnight. Wells were blocked by the direct addition of 230 μl of block solution (5% skimmed milk/0.05% Tween20 in PBS) without first washing the plate. Blocking was carried out for 45 min with gentle agitation. Concurrently, the bacterial cultures containing the expressed scFv and the rescued phage were blocked by the direct addition of 120 μl of block solution. The blocked maxisorp plate was washed 3× with PBST (PBS+0.1% Tween20) before applying 150 μl of blocked scFv or phage culture to the wells. Incubation was performed for 1 h at room temperature with gentle agitation before washing of the wells with 4×PBST.
(§2) For the scFv ELISA, 100 μl of primary mouse 9E10 anti-cmyc Ab diluted 1/1000 in PBS+1% BSA was added to wells, followed by a 1 h incubation at room temperature with gentle agitation. […] The ELISA was developed by the addition of 100 μl/well of TMB substrate (ThermoFischer Scientific, cat. #34021), stabilized with 50 μl/well of stop solution (2N sulfuric acid) and absorbance signals read at 450 nm and 620 nm.

[2] = biological target: T1, human recombinant TGF-b3 (Shenandoah …); test: phage ELISA on plate-coated TGF-b3, anti-fd bacteriophage detection
Description: as §1
For the phage ELISA, 100 μl of primary rabbit anti-fd bacteriophage Ab (Sigma, cat. #B7786) diluted 1/1000 in PBS+1% BSA was added to wells followed by a 1 h incubation at room temperature with gentle agitation. The plate was washed 4× with PBST before the addition of 100 μl of secondary mouse anti-rabbit IgG (Υ-chain specific) HRP conjugate (Sigma, cat. #A1949) diluted 1/15000 in PBS+1% BSA. […]

[3] = biological target: T1, human recombinant TGF-b3 (Shenandoah …); test: ELISA; scFv culture on plate-coated TGF-b3
Description: as §1, §2

[4] = biological target: T1, human recombinant TGF-b3 (Shenandoah …); test: TGFβ specificity ELISA; HEK293-6E supernatant
[5] = biological target: T2, TGFb3 (species not stated) (Homo sapiens (Human), UniProt P10600 301-412); test: SPR (Biacore), single-cycle kinetics; TGFb3 immobilized directly, Fab as soluble analyte
T2 construct: also called TGFβ3; TGF-β3
T2 sequence: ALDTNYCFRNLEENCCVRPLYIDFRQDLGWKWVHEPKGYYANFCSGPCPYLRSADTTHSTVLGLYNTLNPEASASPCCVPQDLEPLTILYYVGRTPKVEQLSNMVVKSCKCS
Description: TGFb3 immobilized directly; Fab as soluble analyte (0 2.5 nM). Single cycle kinetics were conducted as follows Contact: 360 s; Dissociation: 500 s; Flow rate: 30 μl/min.
Binding affinities of the Fabs were in the pM range.

[6] = biological target: T3, TGFb3 (species not stated) (UniProt P10600 301-412); test: Biacore single-cycle kinetics
T3 chain: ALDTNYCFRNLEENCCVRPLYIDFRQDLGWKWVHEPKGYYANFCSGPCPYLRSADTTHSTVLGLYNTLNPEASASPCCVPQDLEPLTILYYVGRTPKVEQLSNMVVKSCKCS

[7] = biological target: T1, human recombinant TGF-b3 (Shenandoah …); test: competition ELISA on hTGF-ß3-coated plate; competitor biotinylated murine 1901
Description: Nunc Maxisorb ELISA plates were coated overnight at 8° C. with 0.5 μg/ml hTGF-ß1 (Peter Sun, NIH) or hTGF-ß3 (Shenandoah Biotech) at 0.5 μg/ml in 40 mM glycine buffer pH 9. Plates were washed and blocked with 10% FCS for 1 h at 37° C. […] After incubation for 2h at 37° C. plates were washed, Avidine-HRP added and incubated for 1 h at 37° C. Plates washed again, TMB substrate was added and bound biotinylated antibody was quantitated by measuring color development in an ELISA reader at a wave length of 450 nm.
The potency of the humanized LCR1901 IgG4 antibody variants to compete with the parental murine antibody for binding to TGFb3 was assessed by ELISA.

B1: LCR1901_scFv (murine 1901 VH and VL reformatted as soluble scFv) (scFv)
scFv: SFVMTQTPKFLLVSAGDRVTITCKASQSVINAVAWYQQKPGQSPKLLIYYASNRYTGVPDRFTGNGYGTDFTFTISTVQAEDLAVYFCQQDYSSPYTFGGGTKLEIKRTVAARQEGGSGEGGSGESNAAAQVLLQQSGPELVKPGASVKISCKASGYAFSSSWIHWVKQRPGKGLEWIGRIYPGDGDTNYTGKFKGKATLTADKSSSTAYMQLSSLTSEDSAVYFCARRMITTQAAMDYWGQGTSVTVSSASTKAS
notes: Expressed in E. coli from pCHV101 and tested as culture; also called LCR1901_soluble scFv; parental soluble scFv
**Q.** Does B1 bind [1]?
**A.** Result: binds

B2: LCR1901_Phage (murine 1901 scFv fused to the pIII coat protein of filamentous bacteriophage) (scFv)
scFv: SFVMTQTPKFLLVSAGDRVTITCKASQSVINAVAWYQQKPGQSPKLLIYYASNRYTGVPDRFTGNGYGTDFTFTISTVQAEDLAVYFCQQDYSSPYTFGGGTKLEIKRTVAARQEGGSGEGGSGESNAAAQVLLQQSGPELVKPGASVKISCKASGYAFSSSWIHWVKQRPGKGLEWIGRIYPGDGDTNYTGKFKGKATLTADKSSSTAYMQLSSLTSEDSAVYFCARRMITTQAAMDYWGQGTSVTVSSASTKAS
notes: not shown: pIII coat protein of filamentous bacteriophage from the pCHV101 phagemid
**Q.** Does B2 bind [2]?
**A.** Result: binds

B3: LCR1901_GLv1_scFv (murine 1901 CDRs grafted onto IGKV1-39*01/IGHV1-69*08, scFv) (scFv)
scFv: DIQMTQSPSSLSASVGDRVTITCKASQSVINAVAWYQQKPGKAPKLLIYYASNRYTGVPSRFSGSGSGTDFTLTISSLQPEDFATYYCQQDYSSPYTFGGGTKLEIKRTVAARQEGGSGEGGSGESNAAAQVQLVQSGAEVKKPGSSVKVSCKASGYAFSSSWIHWVRQAPGQGLEWIGRIYPGDGDTNYTGKFKGRVTITADKSTSTAYMELSSLRSEDTAVYYCARRMITTQAAMDYWGQGTSVTVSSASTKAS
notes: Expressed in E. coli from pCHV101
**Q.** Does B3 bind [3]?
**A.** Result: binds

B4: 1901_Chimeric (mouse 1901 variable domains fused to human IgG1 Fc) (antibody, V domains shown)
VH: QVLLQQSGPELVKPGASVKISCKASGYAFSSSWIHWVKQRPGKGLEWIGRIYPGDGDTNYTGKFKGKATLTADKSSSTAYMQLSSLTSEDSAVYFCARRMITTQAAMDYWGQGTSVTVSS
VL: SFVMTQTPKFLLVSAGDRVTITCKASQSVINAVAWYQQKPGQSPKLLIYYASNRYTGVPDRFTGNGYGTDFTFTISTVQAEDLAVYFCQQDYSSPYTFGGGTKLEIK
notes: Tested as HEK293-6E supernatant; also called murine chimeras
**Q.** Does B4 bind [4]?
**A.** Result: binds

B5: 1901-1D Fab (LCR1901_VH_1G10m_03(K)-LCR1901_VK_GLv1_03(F) expressed as Fab) (Fab, V domains shown)
VH: QVQLVQSGAEVKKPGSSVKVSCKASGYTFSSSWIHWVKQRPGKGLEWIGRIYPGDGDTDYSEKFQGRVTITADKSTSTAYMELSSLRSEDTAVYYCARRMITTQAALDYWGQGTLVTVSS
VL: DIQMTQSPSSLSASVGDRVTITCKASQSVINAVAWYQQKPGQSPKLLIYYASNRYTGVPDRFSGSGYGTDFTFTISSLQAEDVAVYYCQQDYSSPYTFGGGTKVEIK
**Q.** Does B5 bind [5]?
**A.** Result: binds

**Q.** And the Kd [6]?
**A.** Its Kd is 364 pM.

B6: 1901-1A, LCR1901_VH_1G10m-LCR1901_VK_GLv1_05(H), human IgG4 (S228P) (antibody, V domains shown)
VH: QVQLVQSGAEVKKPGSSVKVSCKASGYTFSSSWIHWVRQAPGQGLEWIGRIYPGDGDTDYSEKFQGRVTITADKSTSTAYMELSSLRSEDTAVYYCARRMITTQAALDYWGQGTLVTVSS
VL: DIQMTQSPSSLSASVGDRVTITCKASQSVINAVAWYQQKPGKAPKLLIYYASNRYTGVPDRFSGSGYGTDFTFTISSLQAEDVAVYYCQQDYSSPYTFGGGTKVEIKR
notes: the latter are used; also called LCR1901-1A
**Q.** Does B6 bind [7]?
**A.** Result: binds

B7: 1901_Glv1 (graft) human IgG1 (antibody, V domains shown)
VH: QVQLVQSGAEVKKPGSSVKVSCKASGYAFSSSWIHWVRQAPGQGLEWIGRIYPGDGDTNYTGKFKGRVTITADKSTSTAYMELSSLRSEDTAVYYCARRMITTQAAMDYWGQGTSVTVSS
VL: DIQMTQSPSSLSASVGDRVTITCKASQSVINAVAWYQQKPGKAPKLLIYYASNRYTGVPSRFSGSGSGTDFTLTISSLQPEDFATYYCQQDYSSPYTFGGGTKVEIK
notes: Tested as HEK293-6E supernatant; also called LCR1901_GLv1 mAb (IgG1)
**Q.** Does B7 bind [4]?
**A.** Result: binds

B8: 1901-1A Fab (LCR1901_VH_1G10m-LCR1901_VK_GLv1_05(H) expressed as Fab) (Fab, V domains shown)
VH: QVQLVQSGAEVKKPGSSVKVSCKASGYTFSSSWIHWVRQAPGQGLEWIGRIYPGDGDTDYSEKFQGRVTITADKSTSTAYMELSSLRSEDTAVYYCARRMITTQAALDYWGQGTLVTVSS
VL: DIQMTQSPSSLSASVGDRVTITCKASQSVINAVAWYQQKPGKAPKLLIYYASNRYTGVPDRFSGSGYGTDFTFTISSLQAEDVAVYYCQQDYSSPYTFGGGTKVEIK
**Q.** Does B8 bind [5]?
**A.** Result: binds

B9: 1901-1C Fab (LCR1901_VH_1G10m-LCR1901_VK_GLv1_03(F) expressed as Fab) (Fab, V domains shown)
VH: QVQLVQSGAEVKKPGSSVKVSCKASGYTFSSSWIHWVRQAPGQGLEWIGRIYPGDGDTDYSEKFQGRVTITADKSTSTAYMELSSLRSEDTAVYYCARRMITTQAALDYWGQGTLVTVSS
VL: DIQMTQSPSSLSASVGDRVTITCKASQSVINAVAWYQQKPGQSPKLLIYYASNRYTGVPDRFSGSGYGTDFTFTISSLQAEDVAVYYCQQDYSSPYTFGGGTKVEIK
**Q.** Does B9 bind [5]?
**A.** Result: binds

**Q.** What about the Kd [6] of the same binder?
**A.** The Kd was 300 pM.

B10: 1901-1B Fab (LCR1901_VH_1G10m_03(K)-LCR1901_VK_GLv1_05(H) expressed as Fab) (Fab, V domains shown)
VH: QVQLVQSGAEVKKPGSSVKVSCKASGYTFSSSWIHWVKQRPGKGLEWIGRIYPGDGDTDYSEKFQGRVTITADKSTSTAYMELSSLRSEDTAVYYCARRMITTQAALDYWGQGTLVTVSS
VL: DIQMTQSPSSLSASVGDRVTITCKASQSVINAVAWYQQKPGKAPKLLIYYASNRYTGVPDRFSGSGYGTDFTFTISSLQAEDVAVYYCQQDYSSPYTFGGGTKVEIK
**Q.** How did the Kd [6] turn out when B10 was run?
**A.** The Kd was 285 pM.

B11: 1901-1D, LCR1901_VH_1G10m_03(K)-LCR1901_VK_GLv1_03(F), human IgG4 (S228P) (antibody, V domains shown)
VH: QVQLVQSGAEVKKPGSSVKVSCKASGYTFSSSWIHWVKQRPGKGLEWIGRIYPGDGDTDYSEKFQGRVTITADKSTSTAYMELSSLRSEDTAVYYCARRMITTQAALDYWGQGTLVTVSS
VL: DIQMTQSPSSLSASVGDRVTITCKASQSVINAVAWYQQKPGQSPKLLIYYASNRYTGVPDRFSGSGYGTDFTFTISSLQAEDVAVYYCQQDYSSPYTFGGGTKVEIKR
notes: the latter are used; also called LCR1901-1D
**Q.** Does B11 bind [7]?
**A.** Result: binds

B12: 1901-1C, LCR1901_VH_1G10m-LCR1901_VK_GLv1_03(F), human IgG4 (S228P) (antibody, V domains shown)
VH: QVQLVQSGAEVKKPGSSVKVSCKASGYTFSSSWIHWVRQAPGQGLEWIGRIYPGDGDTDYSEKFQGRVTITADKSTSTAYMELSSLRSEDTAVYYCARRMITTQAALDYWGQGTLVTVSS
VL: DIQMTQSPSSLSASVGDRVTITCKASQSVINAVAWYQQKPGQSPKLLIYYASNRYTGVPDRFSGSGYGTDFTFTISSLQAEDVAVYYCQQDYSSPYTFGGGTKVEIKR
notes: also called LCR1901-1C
**Q.** Does B12 bind [7]?
**A.** Result: binds
